Results reported in patent US11111295B2, “Antibody for anti-claudin 18A2 and use thereof” (CAFA THERAPEUTICS LIMITED, priority 2016, dated 2021).

T1: human CLD18A2 (Homo sapiens, UniProt P56856)
T1 construct: expressed in transfected cells
T1 sequence (P56856 1-261 isoform P56856-2): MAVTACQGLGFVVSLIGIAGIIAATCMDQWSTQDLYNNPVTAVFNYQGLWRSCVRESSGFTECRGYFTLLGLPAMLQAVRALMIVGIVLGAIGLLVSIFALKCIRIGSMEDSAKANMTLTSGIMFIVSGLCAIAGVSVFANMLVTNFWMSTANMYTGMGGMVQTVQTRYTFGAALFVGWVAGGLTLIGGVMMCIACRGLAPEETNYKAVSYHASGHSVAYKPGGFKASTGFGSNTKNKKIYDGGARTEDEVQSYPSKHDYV


Tests used:
human CLD18A2 [1] = target: T1, human CLD18A2; test: Flow cytometry binding of hybridoma supernatants to HEK293 cells stably transfected with human CLD18A2; settings: hybridoma supernatant; most of subclones after two rounds of subcloning; HEK293 transfectants
Description: Individual cells were screened for anti-CLD18A2 monoclonal antibody by flow cytometry, and HEK293 cells (HEK-CLD18A2) stably expressing human CLD18A2 were used for primary screening by flow cytometry using a Guava easyCyte™ HT System instrument. The binding of the antibody to human CLD18A1 and CLD18A2 transformants was then compared by flow cytometry. The instrument used was the Guava easyCyte™ HT System.
After multiple rounds of preparation and screening of hybridomas, the inventors found several antibodies with relatively ideal binding properties.

human CLD18A2 [2] = target: T1, human CLD18A2; test: Flow cytometry binding of scFv_Fc fusion antibody to HEK293 cells stably transfected with human CLD18A2 (EC50); settings: scFv fused to human IgG1 Fc portion, read-out: relative binding affinity EC50 value
Protocol: Binding of anti-Claudin 18A2 scFv_Fc fusion antibody to HEK293 cells stably transfected with CLD18A2 was determined by flow cytometry. Experimental data was analyzed using GraphPad Prism and Guava easyCyte™ HT System instrument as described in Example 1 to obtain EC50 value.
Expression vectors of ScFv Fc-form of the two mutants were constructed as described in Example 2, and according to the procedure of Example 2, and the experimental data was analyzed using GraphPad Prism and Guava easyCyte™ HT System instrument to obtain EC50.
The binding activity assay was performed as described in Example 2, and experimental data was analyzed using HEK293 cells (HEK-CLD18A2) stably expressing human CLD18A2, GraphPad Prism and Guava easyCyte™ HT System instrument to obtain EC50, and the results are shown in FIG. 5.
(5) The binding activity was tested, and experimental data was analyzed using HEK293 cells (HEK-CLD18A2) stably expressing human CLD18A2, GraphPad Prism and Guava easyCyte™ HT System instrument, and the results are shown in FIG. 6.
The mutant hu8E5-2I of the humanized antibody hu8E5 was constructed as described in Example 3. Experimental data was analyzed using HEK293 cells (HEK-CLD18A2) stably expressing human CLD18A2, GraphPad Prism and Guava easyCyte™ HT System instrument, and the results are shown in FIG. 7.

| Molecule | binding to human CLD18A2 (human CLD18A2 [1]) | EC50 (human CLD18A2 [2]) [nM] |
| --- | --- | --- |
| 3E12: murine anti-CLD18A2 monoclonal antibody, VH SEQ ID NO:7, VL SEQ ID NO:5 (antibody, V domains shown) VH: QVQLQQSGPELVKPGALVKISCKASGYTFTSYDINWVKQRPGQGLEWIGWIYPGDGSTKYNEKFKGKATLTADKSSSTAYMQLSSLTSENSAVYFCARGGYRYDEAMDYWGQGTTVTVSS VL: QIVLTQSPAIMSASPGEKVTMTCSASSSISYMHWYQQKPGTSPKRWIYDTSKLASGVPARFSGSGSGTSYSLTISSMEAEDAATYYCHQRSSYPYTFGGGTKLEIKR | specifically bound to human CLD18A2 |  |
| 8E5: murine anti-CLD18A2 monoclonal antibody, VH SEQ ID NO:15, VL SEQ ID NO:13 (antibody, V domains shown) VH: DVQLQESGPDLVKPSQSLSLTCTVTGYSITSGYNWHWIRQFPGNKMEWMGYIHYTGSTNYNPSLRSRISITRDTSKNQFFLQLNSVTTDDTATYYCTRIYNGNSFPYWGQGTSVTVSS VL: DIVMTQSPSSLTVTPGEKVTMTCKSSQSLFNSGNQKNYLTWYQQRPGQPPKMLIYWASTRESGVPDRFTGSGSGTDFTLTISSVQAEDLAVFYCQNAYSFPYTFGGGTKLEIKR | specifically bound to human CLD18A2 | 49.2 |
| 4A11: murine anti-CLD18A2 monoclonal antibody, VH SEQ ID NO:11, VL SEQ ID NO:9 (antibody, V domains shown) VH: QIQLVQSGPELKKPGETVKISCKASGYTFTNYGMNWVKQAPGKGLKWMGWINTNTGEPTYAEEFKGRFAFSLETSASTAYLQINNLKNEDTATYFCARFSYGNSFAYWGQGTTVTVSS VL: DIVMTQSPSSLSVSAGEKVTMSCKSSQSLLNSGNQKNYLAWYQQKPGQPPKLLIYGASTRESGVPDRFTGSGSGTDFTLTISSVQAEDLAVYYCQNDHSYPLTFGAGTKLELKR | specifically bound to human CLD18A2 |  |
